Substrate: CC[C@H](C)[C@H](NC(=O)[C@H](CCCNC(=N)N)NC(=O)CNC(=O)[C@@H](N)CO)C(=O)NCC(=O)N[C@@H](Cc1ccccc1)C(=O)N[C@@H](CC(C)C)C(=O)N[C@@H](CCCNC(=N)N)C(=O)N[C@H](C(=O)N[C@@H](C)C(=O)O)[C@@H](C)O
Assay: Ratio of kcat/km for MMP9 assessed as drug cleavage

B1: Matrix metalloproteinase-9 (Homo sapiens), P14780 (protein)
chain: MSLWQPLVLVLLVLGCCFAAPRQRQSTLVLFPGDLRTNLTDRQLAEEYLYRYGYTRVAEMRGESKSLGPALLLLQKQLSLPETGELDSATLKAMRTPRCGVPDLGRFQTFEGDLKWHHHNITYWIQNYSEDLPRAVIDDAFARAFALWSAVTPLTFTRVYSRDADIVIQFGVAEHGDGYPFDGKDGLLAHAFPPGPGIQGDAHFDDDELWSLGKGVVVPTRFGNADGAACHFPFIFEGRSYSACTTDGRSDGLPWCSTTANYDTDDRFGFCPSERLYTQDGNADGKPCQFPFIFQGQSYSACTTDGRSDGYRWCATTANYDRDKLFGFCPTRADSTVMGGNSAGELCVFPFTFLGKEYSTCTSEGRGDGRLWCATTSNFDSDKKWGFCPDQGYSLFLVAAHEFGHALGLDHSSVPEALMYPMYRFTEGPPLHKDDVNGIRHLYGPRPEPEPRPPTTTTPQPTAPPTVCPTGPPTVHPSERPTAGPTGPPSAGPTGPPTAGPSTATTVPLSPVDDACNVNIFDAIAEIGNQLYLFKDGKYWRFSEGRGSRPQGPFLIADKWPALPRKLDSVFEERLSKKLFFFSGRQVWVYTGASVLGPRRLDKLGLGADVAQVTGALRSGRGKMLLFSGRRLWRFDVKAQMVDPRSASEVDRMFPGVPLDTHDVFQYREKAYFCQDRFYWRVSSRSELNQVDQVGYVTYDILQCPED
  kcat/Km: 20000 M⁻¹ s⁻¹

Reference: ChEMBL document CHEMBL1140886, “Development of an optimized activatable MMP-14 targeted SPECT imaging probe” (Bioorg Med Chem, 2009)
